The results in this text go back to PMC10023680, “Targeting Ras-binding domain of ELMO1 by computational nanobody design” (Communications Biology, 2023).

Residue numbers refer to the chain shown, from its start. Names and notes keep the numbering of the source.

Common to all, as to conditions: both partners purified
The target in experiment [1] is ELMO1-RBD (residues 1-98) (Homo sapiens, UniProt Q92556). Kind of experiment: SPR; Biacore T200; ELMO1-RBD (1-98) amine-coupled to CM5 chip; nanobody designs injected at five concentrations (0.5-8 μM); 10 mM HEPES pH 7.5, 150 mM NaCl, 0.005% P-20; single-cycle kinetic analysis. In general terms: In SPR one partner is held on a chip, and binding of the other changes the refractive index at the surface.

Experiment [2] addresses T1, ELMO1-RBD (residues 1-98) (Homo sapiens, UniProt Q92556).
T1 construct: source: E. coli cell-free protein synthesis, purified (HisTrap, HiTrap Q, Superdex 75); not shown: histidine tag, N-terminal, cleaved
Kind of experiment: SPR; ELMO1-RBD (residues 1-98) immobilised on a CM5 chip by amine coupling; 10 mM HEPES pH 7.5, 150 mM NaCl, 0.005% surfactant P-20; five concentrations (0.5-8 uM) of each nanobody injected continuously; single-cycle kinetic analysis; Biacore T200.

For experiment [3], the target named is T2, RhoG (residues 1-184) (human, UniProt P84095 1-184).
T2 construct: human RhoG, residues 1-184; Loaded with GTPγS for the SPR assays; also called active RhoG; source: Sf9 (baculovirus), purified (HisTrap, TEV, Superdex 75); not shown: poly-histidine tag, N-terminal, cleaved
T2 sequence (P84095 1-184): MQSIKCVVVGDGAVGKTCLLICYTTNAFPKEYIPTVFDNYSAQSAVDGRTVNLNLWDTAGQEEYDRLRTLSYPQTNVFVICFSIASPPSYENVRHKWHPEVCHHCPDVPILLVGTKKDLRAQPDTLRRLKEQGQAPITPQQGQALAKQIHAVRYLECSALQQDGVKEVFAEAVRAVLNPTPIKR
The experiment is described as follows: SPR; Biacore T200; GST-ELMO1-RBD (1-113, wild-type or mutants) captured on CM5 chip with GST Capture Kit; GTPγS-bound RhoG injected at 2.2-35.5 μM (Rac1 and Cdc42 measured similarly); 10 mM HEPES pH 7.5, 150 mM NaCl, 1 mM MgCl2, 0.005% P-20; steady-state affinity analysis.

Experiment [4] concerns the target T2, RhoG (residues 1-184). The experiment is described as follows: crystal structure; equimolar ELMO1-RBD (residues 1-82) and RhoG mixed at 16 mg/ml, 4 °C for 4 h; hanging-drop vapor diffusion at 20 °C; 1.6 Å.

B1: Nb29 (VHH)
VHH: VQLVESGGGLVQAGDSLRLSCAASGLLFSFYIMGWFRQAPGREREFVAAIKWAGDTIYGTDSVKGRFAISRDNAKNTMYLQMNSLKPEDTAVYYCAADRFLTRSVKYTYWGQGTQVTVSS
notes: as Nb01 (designed from PDB 5LMW chain A) with S57A, R67T, T68I (CDR2) and D137T (CDR3) relative to Nb01; keeps Leu29 and Lys59; numbers count on: AHo numbering; S57A, R67T, T68I and D137T are stated against Nb01, not against the parent 5LMW; the old residues may themselves be designed ones; source: E. coli cell-free protein synthesis (with DsbC and GSSG), purified (Ni Sepharose)
Broadly, the Kd is the constant that tells how readily two partners part at equilibrium. With B1, the Kd in experiment [1] was found to be 2000 nM.

B2: Nb29 (VHH)
VHH: B1 VHH
notes: It is Nb01 with S57A, R67T, T68I (CDR2) and D137T (CDR3); S57A, R67T, T68I and D137T are stated against Nb01, not against 5LMW; Numbers count on: AHo numbering; A TEV cleavage site follows the N-terminal poly-histidine tag, but no cleavage is described for the nanobodies; source: E. coli cell-free protein synthesis, purified (Ni Sepharose resin)
B2: in experiment [2], the Kd turned out to be 2020 nM.

B3: Nb02 (VHH)
VHH: B1 VHH with L27M, A49S, K51T, T56R, I57T, T108D
notes: designed from the parent nanobody chain A of PDB 5LMW; as Nb01 but with T29M and S59T instead of T29L and S59K; numbers count on: AHo numbering; source: E. coli cell-free protein synthesis (with DsbC and GSSG), purified (Ni Sepharose)
Take B3: the binding result in experiment [1] is “no binding (tested: 0.5-8 μM)”.

B4: GST-tagged ELMO1-RBD (residues 1-113), wild-type (domain or fragment, human, UniProt Q92556 1-113, looked up)
chain: MPPPADIVKVAIEWPGAYPKLMEIDQKKPLSAIIKEVCDGWSLANHEYFALQHADSSNFYITEKNRNEIKNGTILRLTTSPAQNAQQLHERIQSSSMDAKLEALKDLASLSRD
notes: the plasmids section describes only His-tagged ELMO1-RBD; also called ELMO1-RBD wild-type; not shown: GST, N-terminal, kept
On to B4, for which, in the experiment with RhoG (residues 1-184) [3], the binding result was “binds”.

B5: GST-tagged ELMO1-RBD (residues 1-113) Y18A (domain or fragment, human, UniProt Q92556 1-113, looked up)
chain: B4 chain with Y18A
notes: not shown: GST, N-terminal, kept
With B5, the binding result with RhoG (residues 1-184) [3] was “binds”.

B6: GST-tagged ELMO1-RBD (residues 1-113) N58A (domain or fragment, human, UniProt Q92556 1-113, looked up)
chain: B4 chain with N58A
notes: as for B5
In the case of B6, the binding result in the experiment with RhoG (residues 1-184) [3] is listed as “binds”.

B7: GST-tagged ELMO1-RBD (residues 1-113) K20E (domain or fragment, human, UniProt Q92556 1-113, looked up)
chain: B4 chain with K20E
notes: as for B5
As for B7, the binding result in the experiment with RhoG (residues 1-184) [3] is given as “binds”.

B8: ELMO1-RBD (residues 1-82) (domain or fragment, human, UniProt Q92556 1-82, looked up)
chain: MPPPADIVKVAIEWPGAYPKLMEIDQKKPLSAIIKEVCDGWSLANHEYFALQHADSSNFYITEKNRNEIKNGTILRLTTSPA
B8: the binding result with RhoG (residues 1-184) [4] was “binds”.
